Several values for one entry are separate records, joined by “and”; a condition that tells them apart may be missing. Identical values can stand only once.
What follows are binders tested against human epidermal growth factor receptor 2 (HER2) extracellular domain (human, UniProt P04626 23-629) (assay: SPR).

Binder	Kd	log(KD (M))
Trastuzumab HCDR3 variant ARGGYYGYWYYFDY (Fab, V domains shown) VH: EVQLVESGGGLVQPGGSLRLSCAASGFNIKDTYIHWVRQAPGKGLEWVARIYPTNGYTRYADSVKGRFTISADTSKNTAYLQMNSLRAEDTAVYYCARGGYYGYWYYFDYWGQGTLVTVSS VL: not shown	0.0512 µM	-7.29 log(M)
Trastuzumab HCDR3 variant ARLAFDSVSFYSDY (Fab, V domains shown) VH: EVQLVESGGGLVQPGGSLRLSCAASGFNIKDTYIHWVRQAPGKGLEWVARIYPTNGYTRYADSVKGRFTISADTSKNTAYLQMNSLRAEDTAVYYCARLAFDSVSFYSDYWGQGTLVTVSS VL: not shown	0.187 µM	-6.73 log(M)
Trastuzumab HCDR3 variant ARYRGGYGGYVFDP (Fab, V domains shown) VH: EVQLVESGGGLVQPGGSLRLSCAASGFNIKDTYIHWVRQAPGKGLEWVARIYPTNGYTRYADSVKGRFTISADTSKNTAYLQMNSLRAEDTAVYYCARYRGGYGGYVFDPWGQGTLVTVSS VL: not shown	0.12 µM	-6.92 log(M)
Trastuzumab HCDR3 variant ARSHYGYYDYYTDF (Fab, V domains shown) VH: EVQLVESGGGLVQPGGSLRLSCAASGFNIKDTYIHWVRQAPGKGLEWVARIYPTNGYTRYADSVKGRFTISADTSKNTAYLQMNSLRAEDTAVYYCARSHYGYYDYYTDFWGQGTLVTVSS VL: not shown	0.116 µM	-6.94 log(M)
Trastuzumab HCDR3 variant VRGYGYNFYYHGFSY (Fab, V domains shown) VH: EVQLVESGGGLVQPGGSLRLSCAASGFNIKDTYIHWVRQAPGKGLEWVARIYPTNGYTRYADSVKGRFTISADTSKNTAYLQMNSLRAEDTAVYYCVRGYGYNFYYHGFSYWGQGTLVTVSS VL: not shown	0.147 µM and 0.146 µM	-6.83 log(M)
Trastuzumab HCDR3 variant AYTGAPHGGYHYYAY (Fab, V domains shown) VH: EVQLVESGGGLVQPGGSLRLSCAASGFNIKDTYIHWVRQAPGKGLEWVARIYPTNGYTRYADSVKGRFTISADTSKNTAYLQMNSLRAEDTAVYYCAYTGAPHGGYHYYAYWGQGTLVTVSS VL: not shown	0.0494 µM	-7.31 log(M)
Trastuzumab HCDR3 variant ARSGGHGVNGHWRSF (Fab, V domains shown) VH: EVQLVESGGGLVQPGGSLRLSCAASGFNIKDTYIHWVRQAPGKGLEWVARIYPTNGYTRYADSVKGRFTISADTSKNTAYLQMNSLRAEDTAVYYCARSGGHGVNGHWRSFWGQGTLVTVSS VL: not shown	0.0498 µM	-7.3 log(M)
Trastuzumab HCDR3 variant ATGYSYLRYYD (Fab, V domains shown) VH: EVQLVESGGGLVQPGGSLRLSCAASGFNIKDTYIHWVRQAPGKGLEWVARIYPTNGYTRYADSVKGRFTISADTSKNTAYLQMNSLRAEDTAVYYCATGYSYLRYYDWGQGTLVTVSS VL: not shown	0.273 µM	-6.56 log(M)
Trastuzumab HCDR3 variant ATWPHINTRIYAFDP (Fab, V domains shown) VH: EVQLVESGGGLVQPGGSLRLSCAASGFNIKDTYIHWVRQAPGKGLEWVARIYPTNGYTRYADSVKGRFTISADTSKNTAYLQMNSLRAEDTAVYYCATWPHINTRIYAFDPWGQGTLVTVSS VL: not shown	0.117 µM	-6.93 log(M)

These binders were tested against human epidermal growth factor receptor 2 (HER2) extracellular domain (human, UniProt P04626 23-629) (assay: SPR, Fab format).

Binder	Kd [µM]	log(KD (M)) [log M]
Multi-step trastuzumab HCDR3 variant ARSGGSGYYYYDY (SEQ ID NO: 524) (Fab, V domains shown) VH: EVQLVESGGGLVQPGGSLRLSCAASGFNIKDTYIHWVRQAPGKGLEWVARIYPTNGYTRYADSVKGRFTISADTSKNTAYLQMNSLRAEDTAVYYCARSGGSGYYYYDYWGQGTLVTVSS VL: not shown	1.83	-5.74
Multi-step trastuzumab HCDR3 variant ARDGGGGVYAFTY (SEQ ID NO: 525) (Fab, V domains shown) VH: EVQLVESGGGLVQPGGSLRLSCAASGFNIKDTYIHWVRQAPGKGLEWVARIYPTNGYTRYADSVKGRFTISADTSKNTAYLQMNSLRAEDTAVYYCARDGGGGVYAFTYWGQGTLVTVSS VL: not shown	0.364	-6.44
De novo trastuzumab HCDR2|3 variant IYPSNGYT / ARSGYYYSYSFDY (Fab, V domains shown) VH: EVQLVESGGGLVQPGGSLRLSCAASGFNIKDTYIHWVRQAPGKGLEWVARIYPSNGYTRYADSVKGRFTISADTSKNTAYLQMNSLRAEDTAVYYCARSGYYYSYSFDYWGQGTLVTVSS VL: not shown	0.348	-6.46
De novo trastuzumab HCDR1|2|3 variant GFNFKDTY / IYPANGYT / ASDGGSYSYAFDY (Fab, V domains shown, also called AI Design 5) VH: EVQLVESGGGLVQPGGSLRLSCAASGFNFKDTYIHWVRQAPGKGLEWVARIYPANGYTRYADSVKGRFTISADTSKNTAYLQMNSLRAEDTAVYYCASDGGSYSYAFDYWGQGTLVTVSS VL: not shown	0.642	-6.19
De novo trastuzumab HCDR2|3 variant IYPEDGST / ARSGGSSTYAYDY (Fab, V domains shown) VH: EVQLVESGGGLVQPGGSLRLSCAASGFNIKDTYIHWVRQAPGKGLEWVARIYPEDGSTRYADSVKGRFTISADTSKNTAYLQMNSLRAEDTAVYYCARSGGSSTYAYDYWGQGTLVTVSS VL: not shown	0.669	-6.17
Multi-step trastuzumab HCDR3 variant ARDGGRGRYAMDY (SEQ ID NO: 541) (Fab, V domains shown) VH: EVQLVESGGGLVQPGGSLRLSCAASGFNIKDTYIHWVRQAPGKGLEWVARIYPTNGYTRYADSVKGRFTISADTSKNTAYLQMNSLRAEDTAVYYCARDGGRGRYAMDYWGQGTLVTVSS VL: not shown	0.402	-6.4
De novo trastuzumab HCDR2|3 variant IYPSNGYT / ARYYGGSMYYYGY (Fab, V domains shown) VH: EVQLVESGGGLVQPGGSLRLSCAASGFNIKDTYIHWVRQAPGKGLEWVARIYPSNGYTRYADSVKGRFTISADTSKNTAYLQMNSLRAEDTAVYYCARYYGGSMYYYGYWGQGTLVTVSS VL: not shown	0.109	-6.96
De novo trastuzumab HCDR1|2|3 variant GFNIKDYY / IYPSRGYT / ARHGSEGRYTMDV (Fab, V domains shown, also called AI Design 3) VH: EVQLVESGGGLVQPGGSLRLSCAASGFNIKDYYIHWVRQAPGKGLEWVARIYPSRGYTRYADSVKGRFTISADTSKNTAYLQMNSLRAEDTAVYYCARHGSEGRYTMDVWGQGTLVTVSS VL: not shown	0.192	-6.72
De novo trastuzumab HCDR2|3 variant IDPADGYT / AREGGYGYYAMDY (Fab, V domains shown, also called AI Design 6) VH: EVQLVESGGGLVQPGGSLRLSCAASGFNIKDTYIHWVRQAPGKGLEWVARIDPADGYTRYADSVKGRFTISADTSKNTAYLQMNSLRAEDTAVYYCAREGGYGYYAMDYWGQGTLVTVSS VL: not shown	0.16	-6.8
Multi-step trastuzumab HCDR3 variant ARDGGGGFYAYDY (SEQ ID NO: 534) (Fab, V domains shown) VH: EVQLVESGGGLVQPGGSLRLSCAASGFNIKDTYIHWVRQAPGKGLEWVARIYPTNGYTRYADSVKGRFTISADTSKNTAYLQMNSLRAEDTAVYYCARDGGGGFYAYDYWGQGTLVTVSS VL: not shown	0.124	-6.91
De novo trastuzumab HCDR2|3 variant IYPANGYT / AREGGVGYYSFAY (Fab, V domains shown) VH: EVQLVESGGGLVQPGGSLRLSCAASGFNIKDTYIHWVRQAPGKGLEWVARIYPANGYTRYADSVKGRFTISADTSKNTAYLQMNSLRAEDTAVYYCAREGGVGYYSFAYWGQGTLVTVSS VL: not shown	0.213	-6.67
De novo trastuzumab HCDR2|3 variant IYPANGYT / ASSGGSSSYYYNY (Fab, V domains shown) VH: EVQLVESGGGLVQPGGSLRLSCAASGFNIKDTYIHWVRQAPGKGLEWVARIYPANGYTRYADSVKGRFTISADTSKNTAYLQMNSLRAEDTAVYYCASSGGSSSYYYNYWGQGTLVTVSS VL: not shown	0.554	-6.26
De novo trastuzumab HCDR2|3 variant IYPSSGYT / ASSGGRYYYYYDY (Fab, V domains shown) VH: EVQLVESGGGLVQPGGSLRLSCAASGFNIKDTYIHWVRQAPGKGLEWVARIYPSSGYTRYADSVKGRFTISADTSKNTAYLQMNSLRAEDTAVYYCASSGGRYYYYYDYWGQGTLVTVSS VL: not shown	0.591	-6.23
De novo trastuzumab HCDR2|3 variant IDPANGYT / ARVGGRGYYYYDY (Fab, V domains shown, also called AI Design 7) VH: EVQLVESGGGLVQPGGSLRLSCAASGFNIKDTYIHWVRQAPGKGLEWVARIDPANGYTRYADSVKGRFTISADTSKNTAYLQMNSLRAEDTAVYYCARVGGRGYYYYDYWGQGTLVTVSS VL: not shown	0.134	-6.87
De novo trastuzumab HCDR2|3 variant IYSSDGYT / ARSGGSSYYYYDY (Fab, V domains shown) VH: EVQLVESGGGLVQPGGSLRLSCAASGFNIKDTYIHWVRQAPGKGLEWVARIYSSDGYTRYADSVKGRFTISADTSKNTAYLQMNSLRAEDTAVYYCARSGGSSYYYYDYWGQGTLVTVSS VL: not shown	0.81	-6.09
De novo trastuzumab HCDR2|3 variant IYPSNGYT / ARSSGYYSYSYDY (Fab, V domains shown) VH: EVQLVESGGGLVQPGGSLRLSCAASGFNIKDTYIHWVRQAPGKGLEWVARIYPSNGYTRYADSVKGRFTISADTSKNTAYLQMNSLRAEDTAVYYCARSSGYYSYSYDYWGQGTLVTVSS VL: not shown	0.23	-6.64
De novo trastuzumab HCDR1|2|3 variant GFNIKDTW / IDPANGYT / ARVGGRGYYYYDY (Fab, V domains shown, also called AI Design 4) VH: EVQLVESGGGLVQPGGSLRLSCAASGFNIKDTWIHWVRQAPGKGLEWVARIDPANGYTRYADSVKGRFTISADTSKNTAYLQMNSLRAEDTAVYYCARVGGRGYYYYDYWGQGTLVTVSS VL: not shown	0.394	-6.4
De novo trastuzumab HCDR2|3 variant IYPSNGYT / ARYGGSYAYYFYY (Fab, V domains shown, also called AI Design 8) VH: EVQLVESGGGLVQPGGSLRLSCAASGFNIKDTYIHWVRQAPGKGLEWVARIYPSNGYTRYADSVKGRFTISADTSKNTAYLQMNSLRAEDTAVYYCARYGGSYAYYFYYWGQGTLVTVSS VL: not shown	0.0186	-7.73
De novo trastuzumab HCDR1|2|3 variant GFNISDYY / IYPSSGYT / ARDGGVGSYSMDV (Fab, V domains shown, also called AI Design 2) VH: EVQLVESGGGLVQPGGSLRLSCAASGFNISDYYIHWVRQAPGKGLEWVARIYPSSGYTRYADSVKGRFTISADTSKNTAYLQMNSLRAEDTAVYYCARDGGVGSYSMDVWGQGTLVTVSS VL: not shown	1.32	-5.88
De novo trastuzumab HCDR2|3 variant IYPSNGYT / ARYRGSSSYYFDY (Fab, V domains shown) VH: EVQLVESGGGLVQPGGSLRLSCAASGFNIKDTYIHWVRQAPGKGLEWVARIYPSNGYTRYADSVKGRFTISADTSKNTAYLQMNSLRAEDTAVYYCARYRGSSSYYFDYWGQGTLVTVSS VL: not shown	0.907	-6.04
De novo trastuzumab HCDR2|3 variant IYPANGYT / ASSGGGYSYYYTY (Fab, V domains shown) VH: EVQLVESGGGLVQPGGSLRLSCAASGFNIKDTYIHWVRQAPGKGLEWVARIYPANGYTRYADSVKGRFTISADTSKNTAYLQMNSLRAEDTAVYYCASSGGGYSYYYTYWGQGTLVTVSS VL: not shown	0.476	-6.32
De novo trastuzumab HCDR2|3 variant IDPENGYT / ARVGGYGYYYYDY (Fab, V domains shown) VH: EVQLVESGGGLVQPGGSLRLSCAASGFNIKDTYIHWVRQAPGKGLEWVARIDPENGYTRYADSVKGRFTISADTSKNTAYLQMNSLRAEDTAVYYCARVGGYGYYYYDYWGQGTLVTVSS VL: not shown	0.277	-6.56
